The text below walks through data of patent US20020123623.

The subject of this data set is T1, Ntlim1 (effector plasmid, BY-2 protoplasts) (Nicotiana tabacum).
T1 sequence: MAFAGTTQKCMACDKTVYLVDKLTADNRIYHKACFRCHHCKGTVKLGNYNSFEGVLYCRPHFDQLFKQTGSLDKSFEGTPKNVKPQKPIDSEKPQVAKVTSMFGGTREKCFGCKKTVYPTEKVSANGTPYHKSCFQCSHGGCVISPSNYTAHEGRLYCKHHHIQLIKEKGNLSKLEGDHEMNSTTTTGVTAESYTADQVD
Description: cell_activity. As to conditions: about three times GUS expression vs reporter alone in tobacco BY-2 protoplasts; direct binding not measured.

With CCACTTGAGTAC (double strand), the activity is 3 fold.
